# Assay results taken from the DeepSol protein solubility set.
# Experiment: soluble on expression in E. coli; label from the status in PepcDB or PDB records
row,Sequence,soluble on expression in E. coli
1,MGSDKIHHHHHHMKESLISFIKEKIEEYNYRGAVVGVSGGVDSAVVLSLCVQALGKDRVFALILPERDSSKDSLKDAVDFCERLGVEYRKRSITPILRKIGVYRLFPPRLFLPDSIVKRYVLNRWNTLSKDPFLDDLRNTGPEEFLKGLAYYRIKHRIRMCLLYFEAEKRGYAVVGTTNRTEYLTGLYVKWGDEAVDIEPIMHLYKTQVFELAKEMNVPEKILKKPPSPDLIPGITDEMAFNMSYLELDRILMKLEKNEDLSDEDPKKVERVKKILELSEKYRRDIPITFDRI,not soluble
2,MKINLDRTSSGFCIGVQGTIHVAEEKLAQSGELYCLGDVVHNEVEVKRLEALGMETIDIPAFEELRNAEVLIRAHGEPPSTYETARKNNLAITDTTCPVVAKLQRTAKMLHQLGYQVVIYGKKVHPEVIGINGQCDDEGVVIKHPDLSDPEEIAPLDLSRKTALISQTTMDVPGFYELKRNLEKLFAEHGHRNPGTQSGEWMAVRDIDITAEKTGALAMPKLVFKDTICRQVSSRNGKLRDFALANDCIVFAAGRKSSNGQVLYSICKDANPHSYFIEDVDEIRPEWFVGENGKPVESVGICGATSTPMWLLEKVANYIDKTFGDGSSNPNALEHHHHHH,not soluble
3,MKIHSYIFSLLACLVIALPGYSQVDRNETLIRSALHGLEYEIKAGFSIGGTAPLPLPVEIRSIDGYNPTLAISIGGEVTKWFAVQNKLGVIVGLRLENKAMTTEATVKNYNMEILGQGGERISGVWTGGVKTKVHTSGLTIPLMATYKLSNRWNIKAGPYFSYLLSREFSGHVYEGYLREGDPVGPKVEFTDGKIATYDFSDDLRHFQWGLQIGAGWRAFKHLNIYADLTWGLNDIFRNDFQTITFAMYPIYLNIGFGYAF,not soluble
4,MGSDKIHHHHHHMQVLVVDYTAKDAAEKFVQSLHETGFAVLVNHPIKQSLVESIYKNWQEFFLSEEKHAFAFDPVKQDGYFSSEISETAKGHSKKDIKEYFHVYPWGRIPAQLNDEIFEYYRLASELAAELLDWVEEYSPADIADKYSETLSNMIKETPNTLLRILHYPPLTGNEEAGAVRAASHEDINLLTILPAANEPGLQVQRQNGEWIDVPSDFGNLIINIGDMLQETSAGYFPSTSHRVINPTGKGSDKSRISLPLFLHPRSEVVLSDKHTQASYLLERLRELGVKV,not soluble
5,MLLHTFFDDSKTSVEETPRMFVARLFGSPVSTSIIPTEKESINNNNQETAKMPLDPMDSLWMSKAPQVSDLVVQPNVTFKAVTGGSPHSPSASIPIAGADDSIRPDYDTDCLWKPPTRSARVQKERTISMDSTDSEIGALGGRKFSTNEGASPAPTSPIDAQPRARRMSISEMLFGSSPKSFSWGMESNTTNTTTTSNSGGGDIGERKMSITDDPRFKDFMKHQSKIIGDDGISAAGFKRSNYMKD,not soluble
6,MTKEQIQIIKDCVPILQKNGEDLTNEFYKIMFNDYPEVKPMFNMEKQISGEQPKALAMAILMAAKNIENLENMRSFVDKVAITHVNLGVKEEHYPIVGACLLKAIKNLLNPDEATLKAWEVAYGKIAKFYIDIEKKLYDK,soluble
7,SAGINYVQNYNGNLGDFTYDESAGTFSMYWEDGVSSDFVVGLGWTTGSSNAITYSAEYSASGSASYLAVYGWVNYPQAEYYIVEDYGDYNPCSSATSLGTVYSDGSTYQVCTDTRTNEPSITGTSTFTQYFSVRESTRTSGTVTVANHFNFWAHHGFGNSDFNYQVVAVEAWSGAGSASVTISS,soluble
8,MSKFDTSALEAFVRHIPQNYKGPGGVVAVVKDGEVVLQHAWGFADLRTRTPMTLDTRMPICSVSKQFTCAVLLDAVGEPELLDDALEAYLDKFEDERPAVRDLCNNQSGLRDYWALSVLCGADPEGVFLPAQAQSLLRRLKTTHFEPGSHYSYCNGNFRILADLIEAHTGRTLVDILSERIFAPAGMKRAELISDTALFDECTGYEGDTVRGFLPATNRIQWMGDAGICASLNDMIAWEQFIDATRDDESGLYRRLSGPQTFKDGVAAPYGFGLNLHETGGKRLTGHGGALRGWRCQRWHCADERLSTIAMFNFEGGASEVAFKLMNIALGVSSSEVSRVEADSAWFGSWLDDETGLVLSLEDAGHGRMKARFGTSPEMMDVVSANEARSAVTTIRRDGETIELVRASENLRLSMKRVKGEAKHDIIGRYHSDELDADLLLVSEGGAIYGAFEGFLGKSDMYPLYSVGSDVWLLPVQRSMDAPSPGEWKLVFRRDDKGEITGLSVGCWLARGVEYRRVQP,soluble
9,MGSDKIHHHHHHMSEFDAIFVGAGHNSLACAAHLALKGWKTGIFERSSTIGGAVQTREFTLPGFRHDFGAMNLSLFAGSAFHRKYANELKTQGLEFAPVADCFASAFPDGRWFGVSNDLEKTASRMAAFSAADAATWRKLVAAFPGEAEHLFRLLGSPMSARALAGTAWNLWRKKGVAGALDTGRLLLSSPRTWLEETFESPYVRATLATWGMHLDFAPDIAGGAVFPYLESMANQSFGMVLGKGGADTIIRALAGMVTSAGGKIVTGAEVSEITVSNGKATGVRLTSGETHTATKAVIAGVAPKALTGTLLPGGSGNAGFDTAMKKFRYAPGTMMIHLALDELPGWRAGSELRQFAYVHLSPSLDAMSRTYQQAMAGMLPDEPVLVVGQPTAIDPSRAPQGKHVLWVQVRMLPAEITGDAGGKIAPAHWDQVKDAYAERVLDIIETYAPGLRSKILGRSVFSPIDLERENPNLVGGDQVCGSHHLAQNFLFRPARGYAGWNTPVGNLHLTGAATWPGAGTGAASGFMLAQQLGGR,not soluble
10,MGSDKIHHHHHHMKDDQWLEARAHGDPMFPCNVYRVKEVNGQVIIHCHWHHEMEWIYMEAGEAEFQIGTKMTTVRAGEGLFIPSGHLHGAYPVSDKPFSLYATVVHPDFISSFGYDLIQSRYIDPFKDSERTGPIKLCPTHYWMSDMLTMLQATISQFQQKEEGYELVIKANLLQMMAELVKHFPRTEEQKTGTPQQIRQIKKVLQFIDEHYDEKLTIKQLANLVQMSEGHFSRFFKSIVRMTAVEYIHTQRLNKAARLLRETDRTIMDISMSVGFDHPSYFIKLFKRHKRCTPSEFRRIGLPTFSENMKT,not soluble
11,MGSDKIHHHHHHMDTSIKKKRVRGRLLREMIEDAAFEVIEKEGLAGFSMRKLAAALGCEAMSIYHHFPSVAHLHEALVDRLVGALEMPDASLPWRQRMRIAIEDFRSIGRDHPAYATFFVTYRMNSPICLAWLNGILSLFRDGGFDTELSARLFRAVGYYLMGAVLDENAGYAKGPSAVNTVSDEQLARDFPNVMAAGRFFGTAEFDKTFELGLDMLLDEMERLRDGADAGQLSGKV,not soluble
12,GPLGSEAQSEKEEAPKPLHKVVVCVSKKLSKKQSELNGIAASLGADYRWSFDETVTHFIYQGRPNDTNREYKSVKERGVHIVSEHWLLDCAQECKHLPESLYPHTYNPK,soluble
13,MAHHHHHHMAKEVTTNHCNNSKWWKGRPYAKIPDGPAQRQAAVTISAILATAEATRLKHDNLKSTAAQAHSLAITAIKDAFYGKGETEAGDAFAYTKAEKCGRTTATGTAGAAIVEDLICLCTKGGGGQTTECYTSGPADVGKNKVGGVKVIVNDMIDHCPNISAELHLKPALITRRIAAFYAELGRQDGKKQYNKKSKNRGSGCNWMCSARS,not soluble
14,MSARILVVDDIEANVRLLEAKLTAEYYEVSTAMDGPTALAMAARDLPDIILLDVMMPGMDGFTVCRKLKDDPTTRHIPVVLITALDGRGDRIQGLESGASDFLTKPIDDVMLFARVRSLTRFKLVIDELRQREASGRRMGVIAGAAARLDGLGGRVLIVDDNERQAQRVAAELGVEHRPVIESDPEKAKISAGGPVDLVIVNAAAKNFDGLRFTAALRSEERTRQLPVLAMVDPDDRGRMVKALEIGVNDILSRPIDPQELSARVKTQIQRKRYTDYLRNNLDHSLELAVTDQLTGLHNRRYMTGQLDSLVKRATLGGDPVSALLIDIDFFKKINDTFGHDIGDEVLREFALRLASNVRAIDLPCRYGGEEFVVIMPDTALADALRIAERIRMHVSGSPFTVAHGREMLNVTISIGVSATAGEGDTPEALLKRADEGVYQAKASGRNAVVGKAAHHHHH,soluble
15,MSALRHIAVIDIGKTNAKVALVDLATSSEVALRRMANAPVRQAPYPHHDVESLWTFILDSLAGLNCEQRIDAISITTHGATGALVDASGELVLPVLDYEFDGPNGLAADYDAIRPPFAETGTPRLPLGLNLGAQFFWQQKRFPAAFAHATAILMYPQYWALRLTGVAANEVTSLGCHTDLWNPWTAGFSSLVDRLDWRGLMAPVRPARNRLGPILPALAARTGLDARTPVFCGLHDSNASLLPHLLSDAPPFSVVSTGTWVVSMAVGGREIALDAARDTLVNVNALGDPLPSARFMGGREFSVLTEGQPETWSEDDIGAVLARKTLLLPSTQQGSGPFPHQAATWLDAESINDGQRFAAVSFYLALMTATCLDLIGADGPTTVEGPFARNQLFVGMLAASTGRAVVASEATTGTSIGAALLASDQVMAYGKGERIEPPTDRAWADYANAWRVAVEARGLEHHHHHH,not soluble
16,MGSDKIHHHHHHMNSFLDSVCALLEQGEDVVIVTIAMQSGSTPRESGAKMAVRRDGSILGTVGGGLMEAGCMELGREMLTGRFASSAAESGPELAVIRHFDLSNEEAAKAAMVCGGRLTVVAEHIQAGRRGAEVLCAARDSLLQGKACGLETTMERLEHTAAATREACFAVTGRKTPDCGHAAPAAASATLDCDGKTCRFTEWLQPSPRMIIFGAGHVALPTAAMASMTGFAVTVLDDREEFASPQRFPQARTVVLPDFGQAFAQLTITPQCYVVIMTRGHLHDKTVLEQALKTPACYVGMIGSRRKRDALYDQLRSEGVDESSIARCHCPIGLEIGARTPEEIAVSIMAEIIACRAAGNGDGAS,not soluble
17,GSPPWRGRREQCLLPPEDSRLWQYLLSRSMREHPALRSLRLLTLEQPQGDSMMTCEQAQLLANLARLIQAKKALDLGTFTGYSALALALALPADGRVVTCEVDAQPPELGRPLWRQAEAEHKIDLRLKPALETLDELLAAGEAGTFDVAVVDADKENCSAYYERCLQLLRPGGILAVLRVLWRGKVLQPPKGDVAAECVRNLNERIRRDVRVYISLLPLGDGLTLAFKI,soluble
18,MGSDKIHHHHHHMIDGDSSPLLRKQSPYPHWQYLHPESGDRLRIVPERGGLVTDWCCNGHELLYLDQERFADPEKSIRGGIPVLFPICGNLPGDLLPLPSGEFILKQHGFARDQPWELQLLEDHSGVKLSFVDSEETRAAYPFSFLLEMVVRPIRNALEIDVNVHNRSQSAMPFSFGLHPYFKVTDLNKVRLEGLPNSCLNHLQMAEAETAIQLAALTEGVDFLTRPAGPVTLVDEASGRSLQLQHENPMDLTVVWTDPPRQMLCLEPWTGPREALISGDRKLEIEAGGQQRLRCSFSINLEKTVRAASC,not soluble
19,MGSDKIHHHHHHMREYIKEGIKLAVTNIPEDVVSAIREALEREESKIAKYNLEMILKAIDISRKEGIPVCQDTGTPIFFVRTNGPINKIYDEIVKGVEIATREVPLRPNALHVLDGKVIGNVPEVHFEPGKETLISILMKGGGSENCTALFPLTPAEGLEGVKNKVIEHVQSCGGKPCPPIIVGIGIASPAEKAIILAKKALLRRISERHPNEKLAKFERELLEEINSLGIGPMGLGGRTTALDVKVEVETRHPASYIVGVVIQCWAHRRAFIKVSEGGVKIWQ,not soluble
20,MGSDKIHHHHHHMTRKNKEQPAMSNNTSSNTNGKPQKRLIIITGDKGGVGKSTFARAIFQLYINKNLPCVAYEADLRNPQIERYFQKDYRPIIRYIDIFHRGGADDLLINLDESDCPITLLDLPAQSGCFFESYVKELAFFEVLKTEINCRVTMVSVISRVLDSINVLEKLRELCKDQVDYIVVKNLFHGEEEKFERYNDSSLRQNMLAEGLIELVMPDLFYKSYDFLDRHALTFNEGQTHQETNIVIKSRIKSWVAEFEAQIKPAFNFLGFDIQPDDCYYPAVVEKSKELRENEEKEKAKNQDANLPSEDIAA,not soluble
